Experimental data reported in paper PMC7060200, “Selective Binding of HSC70 and its Co-Chaperones to Structural Hotspots on CFTR” (Scientific Reports, 2020).
Ends that are not written are not given here. * marks the point of attachment. Biotin = O=C1N[C@H]2[C@H](CS[C@H]2CCCCC(=O)*)N1

B1: CFTR peptide 17-S (peptide, UniProt P13569 13-21, looked up)
peptide: SKLFFSWTR
notes: CFTR, 9-mer numbered by its central residue 17, from the NT; source: synthetic peptide (Lifetein, unmodified, >85% purity)
B2: CFTR peptide 469-S (peptide, UniProt P13569 465-473, looked up)
peptide: TSLLMVIMG
notes: source: synthetic peptide (Lifetein, unmodified, >85% purity)
B3: CFTR peptide 1393-L, biotinylated (library form) (peptide)
peptide: Biotin-GSGSRTLKQAFADCTVILC
modifications: cysteine pairing not given here
notes: linker; CFTR, 15-mer numbered by its middle residue 1393, from NBD2; source: synthetic peptide (Mimotopes, PepSet purity)
B4: CFTR peptide 618-S (peptide, UniProt P13569 614-622, looked up)
peptide: DKILILHEG
notes: as for B2
B5: CFTR peptide 1295-S (peptide, UniProt P13569 1291-1299, looked up)
peptide: QKVFIFSGT
notes: as for B2
B6: CFTR peptide 1398-S (peptide, UniProt P13569 1394-1402, looked up)
peptide: DCTVILCEH
notes: as for B2
B7: CFTR peptide 1393-L, soluble unmodified (peptide, UniProt P13569 1386-1400, looked up)
peptide: RTLKQAFADCTVILC
notes: CFTR, 15-mer numbered by its middle residue 1393, from NBD2; source: synthetic peptide (Lifetein, unmodified, >85% purity)
B8: CFTR peptide 1403-L, biotinylated (library form) (peptide)
peptide: Biotin-GSGSTVILCEHRIEAMLEC
modifications: cysteine pairing not given here
notes: linker; CFTR, 15-mer numbered by its middle residue 1403, from NBD2; source: synthetic peptide (Mimotopes, PepSet purity)
B9: CFTR peptide 1293-L, soluble unmodified (peptide, UniProt P13569 1286-1300, looked up)
peptide: FGVIPQKVFIFSGTF
notes: as for B2
B10: CFTR peptide 1403-L, soluble unmodified (peptide, UniProt P13569 1396-1410, looked up)
peptide: TVILCEHRIEAMLEC
notes: CFTR, 15-mer numbered by its middle residue 1403, from NBD2; source: synthetic peptide (Lifetein, unmodified, >85% purity)
B11: CFTR peptide 1100-S (peptide, UniProt P13569 1096-1104, looked up)
peptide: LRWFQMRIE
notes: CFTR, 9-mer numbered by its central residue 1100, L4 side of the NT-L4 interface; source: synthetic peptide (Lifetein, unmodified, >85% purity)

Key:
Conditions in all cases: both partners purified
[1] = molecular target: T1, HSC70 (HSPA8), His-tagged (UniProt P11142 1-646); experiment: ELISA; competition: 1 μM chaperone mixed with soluble peptide (titrated up to 100 μM, or fixed 100 μM in the screens) and bound to immobilised 1097-L; Kd of the competing peptide from linearised competition curves
T1 construct: HSC70 (HSPA8), the constitutive form of HSP70

[2] = molecular target: T2, DNAJA2 (DJA2), His-tagged (UniProt O60884 1-412); experiment: as above
T2 construct: DNAJA2, J-domain co-chaperone of HSC70

[3] = molecular target: T2, DNAJA2 (DJA2), His-tagged; experiment: ELISA; titration of increasing concentrations of chaperone on immobilised biotinylated peptide; HSC70 with ATP; apparent Kd from linearised binding curves
[4] = molecular target: T3, DNAJA1 (DJA1), His-tagged (UniProt P31689 1-397); experiment: as above
T3 construct: DNAJA1, J-domain co-chaperone of HSC70

[5] = molecular target: T1, HSC70 (HSPA8), His-tagged; experiment: as above
[6] = molecular target: T3, DNAJA1 (DJA1), His-tagged; experiment: ELISA; competition: 1 μM chaperone mixed with soluble peptide (titrated up to 100 μM, or fixed 100 μM in the screens) and bound to immobilised 1097-L; Kd of the competing peptide from linearised competition curves

T2 sequence (O60884 whole entry): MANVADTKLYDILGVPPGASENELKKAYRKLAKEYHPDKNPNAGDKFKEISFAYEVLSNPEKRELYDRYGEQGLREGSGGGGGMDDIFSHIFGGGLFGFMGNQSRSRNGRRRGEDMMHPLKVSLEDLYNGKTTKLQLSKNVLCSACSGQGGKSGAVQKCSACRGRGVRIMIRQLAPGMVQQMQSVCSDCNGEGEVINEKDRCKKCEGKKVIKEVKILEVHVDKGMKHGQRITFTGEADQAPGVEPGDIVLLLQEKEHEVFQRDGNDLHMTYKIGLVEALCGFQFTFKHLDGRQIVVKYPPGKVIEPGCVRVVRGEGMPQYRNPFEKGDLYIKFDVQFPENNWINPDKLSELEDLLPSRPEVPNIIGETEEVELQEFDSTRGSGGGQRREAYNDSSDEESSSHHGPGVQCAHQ
T1 sequence (P11142 whole entry): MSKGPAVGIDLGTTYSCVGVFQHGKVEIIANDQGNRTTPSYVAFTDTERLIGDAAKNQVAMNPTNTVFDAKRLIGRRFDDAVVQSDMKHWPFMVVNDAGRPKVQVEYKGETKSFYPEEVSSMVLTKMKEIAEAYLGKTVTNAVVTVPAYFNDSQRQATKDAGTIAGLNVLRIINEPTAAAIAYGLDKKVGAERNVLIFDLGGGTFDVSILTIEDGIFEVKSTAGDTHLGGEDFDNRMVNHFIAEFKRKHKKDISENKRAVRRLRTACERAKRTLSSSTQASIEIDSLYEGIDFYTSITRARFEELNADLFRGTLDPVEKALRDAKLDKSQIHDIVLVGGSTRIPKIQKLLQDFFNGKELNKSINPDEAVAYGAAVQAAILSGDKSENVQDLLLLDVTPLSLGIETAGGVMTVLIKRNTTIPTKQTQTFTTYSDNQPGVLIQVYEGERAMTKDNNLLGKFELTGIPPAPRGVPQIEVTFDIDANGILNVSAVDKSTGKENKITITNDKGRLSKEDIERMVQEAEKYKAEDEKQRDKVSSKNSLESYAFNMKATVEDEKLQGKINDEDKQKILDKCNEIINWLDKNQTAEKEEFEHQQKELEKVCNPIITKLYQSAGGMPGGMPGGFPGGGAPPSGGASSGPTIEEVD

Binder | Kd [1] [nM] | Kd [2] [µM] | other results
B1 | 1760 |  | 
B2 | 1560 | 4.82 | 
B3 |  |  | Kd [3]: 1120 nM; Kd [4]: 1500 nM; Kd [5]: 9.06 µM
B4 | 3730 |  | 
B5 | 1260 |  | 
B6 | 900 | 4.45 | Kd [6]: 18.3 µM
B7 | 1040 | 1.49 | Kd [6]: 15.7 µM
B8 |  |  | Kd [3]: 1190 nM; Kd [4]: 1490 nM; Kd [5]: 11.1 µM
B9 | 2020 |  | 
B10 | 2660 | 0.994 | Kd [6]: 9.15 µM
B11 |  | 8.33 | 
